Data taken from the DeepSol protein solubility set.

assay: soluble on expression in E. coli; label from the status in PepcDB or PDB records

Sequence	soluble on expression in E. coli
MTLSSAGGSRSHRHNGGHSERDVEIRILKDKVRSLTKEKISLQKELEYYKNEITKLLSPPYIEAVVLEVIDDNRVVVKSSTGPNLIVNVAAGVDARSLKPGAIVALNNRGSTIVDVLPGRYDPLVKAMEVEERPKVFFKDVGGLEEQIREIYEAVVLPIKNPHLFRELGIDPPKGVLLHGPPGTGKTLLAKAVAGETEATFIRVVGSELVNKFIGEGARLVREIFRLAREKAPSILFIDEIDAIASKRVDIGTSGDREVQRTMLQLLAELDGFDPLDNVKVIAATNRLDLIDPAVLRPGRFDRIIEVPLPSLRGRLEILGIHTRKAKMAPDVDLEAIAKLTEGFSGADLKAVVVEAGYNAIRRGSRVITMDDMIKAVEKVKAALDKRGGGDPFIRAQQKSGDDTIATVI	soluble
MRKILVVGAGQSGLQLALGLQSHGYEVTLMSNRTADEIRTGRVMSTQCMFHTALQHERDLQLNFWESQAPKIEGLGVSVAAPGSFDPGPSQRAIDWLGHLDGFAQSVDQRVKMAGWMETFAQRGGQLVIHGAAVGDLDYFSRAYDLVLVSAGKGELVQMFGRDAERSPYSEPQRALAVAYVHGMGPRPEHPETEAVRCNLVPGVGEMFIMPTFTTSGRADILFWEGIPGGPLDAFKDVKDPAEHLSLTLELMEKFLPWEYARATKVELTDAGGTLAGRYAPTVRNPVGRLPGGGAVLGVADVVVANDPITGQGSNSASKCAASYLASIIEHGDQEFDETWMRQTFDRYWETAQHVTKWTNTMLAPPPEHILNLFGAATQLQPIADRFANGFNDPSDFENFFYDPAKTEGYLAEVSGAAGALEHHHHHH	not soluble
MAKPDQLELLFDVAPPADPASAAPPGAPPRKTPKARPAPPAPAAIATPCPDPLPPGARWREVHTEQQPIGFVLLRSRRRSIGFVVADDGLRVTAPNWVTLGQIDDAVREKARWILAKLRDWHARKEQLAMAHTRWQAGGELPYLGKRIVLGLGAERRQACLSGDADAPCDGDTLWLALPVDADQARIRDAAQAWLQQRAGAWFGARLAHFLQLTGLRIRRWRLSSAATRWGSCTSDGNIMLNWRLIHFAPAIIDYVIAHELAHLREMNHSQDFWTEVGHILPGFEDAKNVLRRHDPATLPQFLEHHHHHH	soluble
MHIMVTQGGLMSLSIVHTRAALGVNAPPITVEVHISKGLPGLTMVGLPETTVKEARDRVRSAIINSGYEYPAKKITINLAPADLPKEGGRYDLPIAIALLAASEQLTANKLDEYELVGELALTGALRGVPGAISSATEAIKSGRKIIVAKDNEDEVGLINGEGCLIADHLQAVCAFLEGKHALERPKPTDAVSRALQHDLSDVIGQEQGKRGLEITAAGGHNLLLIGPPGTGKTMLASRINGLLPDLSNEEALESAAILSLVNAESVQKQWRQRPFRSPHHSASLTAMVGGGAIPGPGEISLAHNGVLFLDELPEFERRTLDALREPIESGQIHLSRTRAKITYPARFQLVAAMNPSPTGHYQGNHNRCTPEQTLRYLNRLSGPFLDRFDLSLEIPLPPPGILSKTVVPGESSATVKQRVMAARERQFKRQNKLNAWLDSPEIRQFCKLESEDAMWLEGTLIHLGLSIRAWQRLLKVARTIADIDQSDIITRQHLQEAVSYRAIDRLLIHLQKLLT	not soluble
KNASVITVGNEILKGRTVNTNAAFIGNFLTYHGYQVRRGFVVMDDLDEIGWAFRVALEVSDLVVSSGGLGPTFDDMTVEGFAKCIGQDLRIDEDALAMIKKKYGQADLTPQRLKMAKIPPSCRPIENPVGTAPGLICAVGGKKVIILPGVPKEMEALLKAMEKDIIIPD	soluble
MIDGAEVSVSRGKNNPFYFNSDRWFHTLFRNQFGHLRVLQRFDQRSKQMQNLENYRVVEFNSKPNTLLLPHHADADFLLVVLNGRAVLTLVNPDGRDSNILEQGHAQKIPAGTTFFLVNPDDEENLRIIKLAVPVNNPHRFQDFFLSSTEAQQSYLQGFSKNILEASFDSDIKEISRVLFGEEGQQQQQGQESQQEGVIVELKREQIRELTKHAKSSSKKSLSSEDQPFNLRNQKPIYSNKLGRWFEITPEKNPQLRDLDMFIRSVDMKEGSLLLPHYNSKAIVILVINEGKANIELVGQREQQKQQEEQEESWEVQRYRAELSEDDVFIIPATYPVAINATSNLNFFAFGINAENNQRNFLAGEKDNVISEIPTEVLDVTFPASGEKVQKLIKKQSESQFVDAQPEQQEREEARKGGKGPFVY	soluble
MSLAILIKNRIGKGYPIYTSTVLNEKLSDEGNLTFDILENENTYDLISAVSKMWTVHNVAGPDDKRVFVITIIDRQSRGEKQYVSITARQKEIDDLMTQRIYSNVTGSFTVENYFKIVFQGSGYKYKIPIKVPSSRWENAGDGDSRYEMFKNGLERYDLEYTYDPSNKTFTLEPFVEKKTSYYISSKVNANNLKLEEDASECYTYIRGYGGFEEDESFMQGSVQVEFTHPLAKVIGKREAPPKIDGRITNIETMKREIEAIIAQSLKTSLSLDFVALREVFPSAVPRIGDLVPVRDDIIDINDSVRIIEIKTTRDAHNKIIKQDVVLGDIRRRDRYTKSVNNAATLASGLGGGSEGHHHHHH	soluble
PHFIVECSDNIREEADLPGLFAKVNPTLAATGIFPLAGIRSRVHWVDTWQMADGQHDYAFVHMTLKIGAGRSLESRQQAGEMLFELIKTHFAALMESRLLALSFEIEELHPTLNFKQNNVHALFK	soluble
MSVEIESIEHELEESIASLRQAGVRITPQRQAILRYLISSHTHPTADEIYQALSPDFPNISVATIYNNLRVFKDIGIVKELTYGDSSSRFDFNTHNHYHIICEQCGKIVDFQYPQLNEIERLAQHMTDFDVTHHRMEIYGVCKECQDK	not soluble
MSLTKIKNIKTKVYQWNGKTVPPKNNFCTNASDILYEKSDAMGSFRFHEWLICEIETDDGVFGIGNAALAPQIVKKTIDTYLKPLVVGEDPFDYAYIWEKMYRRTHAWGRRGIGMIAMSAIDIGIWDILGKITNKPVFKLLGGRTKEKIPVYASKLYSQPLNELQKEAETYKNQGFKMYKMSFGWGPKDGPEGMKKNIDLVEAVREVIGDDSDLMLESYMGWNLDYSKRIIPKLIKFNPRWLEEPVIADDIAGYSELNKMGVIPISGGEHEFNLFGFKQLLDLKAVSYIQYDTNRVGGITAAQKINALAESFQVPVVPHAGQMHNYHLTMANFNCPISEYFPVHDVEVGNELFYYIFEGDPEPKNGNINLDDNIPGLGLKISDKYKSDFNIIDEGHHHHHH	soluble
MSLYNFLGKELKSPLIIGSGPLTYSAAGCKILSDAGAGAVVTKTIRKERAINPAPHMVRNTANALLNNEKWTDFEPEQWIDFEIPQMKRDGTVCIASIGHTIEESSELVEKVANAGADFIELVSYDYRDLIPMLKDAKERVNIPVIVKLPPMIDEIGDFAKKLEEAGADAITACDSVGPAFRIDIETGQPLLGGNGIGYLSGETIKPITLQRIYEIKKQVNIPIIGLGGCVSGDDALEMIMAGADFVGICSVVILKGAQVISKIHDDLKSNLNRLGYNTIENACGIVHNHMGDVNEREGHHHHHH	soluble
MSLNKVITKKQTIPAFFKGNAPYIFAHRGGMALRPEQTQLAFDYAKQLGVDGFETDVRLTKDQQLIVFHDATVDRTTNGSGKVSAHTLAELKKLDAAYHFKDINGLTPYRGHAHTTILTFDELLKQYPDMYINVDLKDAPESYEGSIAPQIMFDTIAENQAFDRVLVTSFYKEQIVRFNKIAQGSVAIGASQQEVTEAFLKYHLLGGRYYQPLAQTFQMPTHFKGIDLTSSRFIKWLNDMNIIPGYYGVNSIDLMNDLYQKGAHTIVTDRPDLAQQFKQTIPNKEGHHHHHH	soluble
QRGIINQRRERLVAADLMGAATVTASTVKYIVEKANRIASGAPATVAEGTKKPYVKYADFDVVTESLSKVAALAKFTDEMIEDYDFVASWINNNLVYDLSVVEEKQLINGDGRGSNIKGLLNREGIQTHKSAKQADWFNDLFKAKNKVSQATNLEADGIMINPVNYEALRLTKDGNGQYIAGGPFQGQYGNGNILIDPPLWGIKTVVSNAVPAGTAIVGAFRQGATVLRKGGVRVDSANTNADDFENNLVTLRAEERLGLMVPLPAAFVKVTLEETTEEL	not soluble
MEQQRDFDSALAWHRKAKCAGKAGSADVLPGHDKDANAARVVELCAMCADCPVFEQCGREAIAEPFLTLGVVRAGIPDTTQSKSKQKKLLQQVIDEGVPPPVALIMALKDRKGYEGALVGLAGLYEAYRGVYV	not soluble
MINMTRKLYYEDAYLKEAKGRVLEIRDNAILLDQTIFYPTGGGQPHDRGTINGVEVLDVYKDEEGNVWHVVKEPEKFKVGDEVELKIDWDYRYKLMRIHTGLHLLEHVLNEVLGEGNWQLVGSGMSVEKGRYDIAYPENLNKYKEQIISLFNKYVDEGGEVKIWWEGDRRYTQIRDFEVIPCGGTHVKDIKEIGHIKKLKRSSIGRGKQRLEMWLE	soluble
MMPSQITRSSHSSLPEVAPASGDATGVSEQTPQQARTVAFFSSGELAVAFGRTSAAPEQDSVRLLSALQRELDKQHPSWHTVAQLCQSLAEVGTTEQGWHQLASEDQLPALRELLDRCTHRLADMPAAHASHDSLSQACEGLRTARLHQSVARLTARPSSLARAMADLLTLTHLDPETLGAEPPVISSYTLFSHFVRTAKQRTADLNDSLQRQPDAVVSLLRSHADTLNDLEMLPGALQALTENCQDAPARNELRELAEVAGALLQLLLEHDLLPRLEEISIEPGEA	not soluble
MSLQSLWIYPEDTEVLGAACKSLLKALKPRYQKIALFSPISGGCEGFGECESLSSLEVHSAIDKQKALELVSTAQEELLFETILKRYDELQSTHDFVINLGYAPKFFLNALLDLNTILAKHLNAPVVAVAQTSLDHLKAMHSHILKKEAPFAIGLFVGETLEKPHFLSASLCKQQCELEASAIENLLQTKSEIITPLAFQRSLEKKAKKQIKKVVLPESEDERILKAAHRLNLMGAVGLILLGDKEAINSQAKNLNLNLENVEIINPNTSHYREEFAKSLYELRKSKGLSEQEAERLALDKTYFATMLVHLGYAHAMVSGVNHTTAETIRPALQIIKTKPGVSLVSSVFLMCLDTQVFVFGDCAIIPNPSPKELAEIATTSAQTAKQFNIAPKVALLSYATGNSAQGEMIDKINEALTIVQKLDPQLEIDGPLQFDASIDKGVAKKKMPNSQVAGQASVFIFPDLNAGNIAYKAVQRSAKAVAIGPILQGLNKPINDLSRGALVEDIVNTVLISAIQAQDYEGHHHHHH	not soluble
MAHHHHHHMDDFPLSLCSSNIRETMFKVTAPLFLALTTSNAIALSRGTSVSVSSEGGKCNEIWYSNGKEMCGSPLAPQSSTVQRALPPAPAPAKKPESSLRSGDEVATQHEERGGLDLRSIASRQPSFDALSATINGERQVGRASGTAIRGGNEGSAEPSSDEGQQRTTELWSGQAEGQVKQMAEGEQRNPGSGDEGQNQGGDVAPLQVAKEGESNMKWPPAQRVILGTVKENAQKETRKDLDDLEQEANSTQVGRTTAHKRHVMLITATLSFICVQRLLV	soluble
MIEGHGDDSYKYRHPIRSNFSSNVYNKVNLDGLRAHLCGRISAISAYPEPEPYTLEARLADRHALPAASVCVTNGATEAIYLIAQTFRGTNTAILMPTFSEYADACRMHGHKVTSLYTLDAVPEDVRMVWLCNPNNPTGEVRDKKYLTELIAKHPRVCFVIDQSYEYFTLKELFTAQEAAGFPNVILLHSMTKRYAIPGLRLGYVTAHPGLIGRLRTNRMPWSVNQLAIEAGLYLLSEGIPAGLSMKDYLAECARLKSSLEAIGGLEVWPTDTHFMLVCLRFGKAAALKEYLAREEGILIRDASNFEGLDERFFRIATQTPEENDELVGAIAKWMAE	not soluble
